Assay results: patent US5700777A, “Fatty acid - pulmonary surfactant conjugates” (Abbott Laboratories, priority 1995, dated 1997)

B1: SPB(1-78): synthetic full length SP-B peptide, sequence based on natural SP-B (peptide, UniProt P07988 201-279, looked up)
Pulmonary …: FPIPLPYCWLCRALIKRIQAMIPKGALAVAVAQVCRVVPLVAGGICQCLAERYSVILLDTLLGRMLPQLVCRLVLRCSM
modifications: Pulmonary surfactant-associated protein B

What was measured:
Assay type in all cases: physicochemical
[1] = Modified Wilhelmy surface balance (Langmuir trough): dynamic surface tension versus compressed surface area; details: for Surface activity of admixtures, in words: data of Tables 2 and 3 (Wilhelmy balance, King-Clements, pulsating bubble); for Wilhelmy-Langmuir Trough Equilibrum (equilibrium adsorption value): after a three (3) minute spreading time, total peptide 0.5 mg/ml; for Wilhelmy-Langmuir Trough Equilibrum (equilibrium adsorption value) / Wilhelmy-Langmuir Trough Max (maximum dynamic surface tension) / Wilhelmy-Langmuir Trough Min (minimum dynamic surface tension): 37° C.; for Wilhelmy-Langmuir Trough Max (maximum dynamic surface tension) / Wilhelmy-Langmuir Trough Min (minimum dynamic surface tension): peptide/lipid admixture, total peptide 0.5 mg/ml (two peptides: 0.25 mg/ml each), 675 μg phospholipid, seven compression-expansion cycles, average of 3 runs
Excerpt: The dynamic surface tension lowering properties of the peptide/lipid admixtures were studied using a modified Wilhelmy Surface Balance (Langmuir Trough). The instrument consists of an all Teflon trough and movable Teflon ribbon (dam) barrier system which completely contains and defines a variable surface area. Surface area was varied through the use of a constant rate reversible 3-phase motor to drive the Teflon barrier. A Cahn 2000 electrobalance (Cahn Instruments, Cerittos, CA) with a sandblasted 1 cm platinum plate and stainless steel hangdown wire was employed to determine the surface tension at the liquid-air interface. The entire apparatus was situated in a thermostated incubator set at 45° C. Surface area-surface tension measurements were made by adding 950 ml of 0.15M NaCl to the trough. Subphase temperature was controlled during the measurements at 36°-38° C.
For each experiment 27 ul of peptide/lipid admixture was applied in a random array of 13 (.congruent.2 ul) droplets to the surface of the temperature controlled subphase and allowed to spread spontaneously for 3 minutes. (The 27 ul application corresponds to 675 ug of phospholipid). The trough surface area was then cycled from a maximum (445 sq. cm) to a minimum (178 sq. cm) surface area and back to maximum at a cycling rate of 3 cycles/min (compression ratio 2.5:1). The dynamic surface tension vs surface area was recorded for 7 complete compression-expansion cycles for each application.

[2] = Adsorption rate, King-Clements system (Wilhelmy balance with stirred round Teflon dish); details: 10 ml of diluted sample (1:50) added under constant agitation to 70 ml saline subphase; 37° C.
Experimental: A procedure similar to that described by Notter, et al., Pediatric Res. 16, 515-519, (1982) was employed to determine the absorption rate in the absence of diffusion resistance. The modified Wilhelmy surface balance as described above was used. However, instead of using a Langmuir trough a round Teflon dish (5.1 cm diameter) was employed. The subphase, 70 ml of 0.15M NaCl, was allowed to equilibrate to 37° C. in the incubator and was continuously stirred with a Teflon coated magnetic stirer. An aliquot of the peptide/lipid admixture containing 5 mg of total phospholipid was dispersed in 10 ml of 0.15M NaCl by vortexing for 10 seconds. This dispersion was then added to the saline subphase. Surface tension lowering was monitored using a strip chart recorder connected to the electrobalance output and data collected for 20 minutes.

[3] = Pulsating bubble surfactometer (PBS) surface tension; details: after 100 cycles (5 minutes, 20 cycles/minute); phospholipid 1 mg/ml; 37° C.; diluent […] NaCl; mean of triplicate
Experimental: The PBS equipment (Electronetics, Buffalo, N.Y.) used was essentially equivalent to that described in detail by G. Enhorning, J. Appld. Physiol. 43, 198-203, (1977). Recordings were made of the pressure gradient across the wall of a small air bubble, communicating with ambient air by means of a narrow chimney stack, but otherwise entirely surrounded by a 40 ul volume of the peptide/lipid admixture. The admixture concentration employed for these studies was 1 mg/ml total phospholipid (0.02 mg/ml total peptide) and the diluent was 0.15M NaCl. Immediately prior to loading the sample chamber, the diluted samples were sonicated for 15 seconds to remove any gas nuclei.
The pressure drop across the air-water interface was measured during pulsation by a pressure transducer, and the corresponding surface tension determined through the application of Young's law and the Laplace equation. Measurements were all made at 37° C. and the bubble pulsed at 20 cycles/minute to render respectively a maximum (1.1 mm) and a minimum (0.8 mm) bubble diameter. (This compression/expansion corresponds to a 50% change the surface area of the air-water interface).

Molecule	Surface activity of admixtures, in words [1]	Wilhelmy-Langmuir Trough Equilibrum (equilibrium adsorption value) [1] [dynes/cm]	Wilhelmy-Langmuir Trough Max (maximum dynamic surface tension) [1] [dynes/cm]	Wilhelmy-Langmuir Trough Min (minimum dynamic surface tension) [1] [dynes/cm]	King-Clements Adsorption (adsorption surface tension) [2] [dynes/cm]	Surface Tension Values Maximum (pulsating bubble apparatus) [3] [dynes/cm]	Surface Tension Values Minimum (pulsating bubble apparatus) [3] [dynes/cm]
C-14 (Myristic acid)-SP-C (FGIPCCPVHLKRLLIVVVVVVLIVVVIVGALLMG; Pulmonary surfactant-associated protein C N-terminal myristic acid; UniProt P11686 24-57, looked up, fragment) [C14 -SPC(1-34), myristic acid (C14) covalently attached to the N-terminal end of synthetic human SP-C(1-34)]	unusual surface activity	–	–	–	–	–	–
C-16 (Palmitic acid)-SP-C (FGIPCCPVHLKRLLIVVVVVVLIVVVIVGALLMG; Pulmonary surfactant-associated protein C N-terminal palmitic acid; UniProt P11686 24-57, looked up, fragment) [C16 -SPC(1-34)]	unusual surface activity	–	–	–	–	–	–
SPB(53-78): synthetic C-terminal SP-B fragment, sequence based on natural SP-B (YSVILLDTLLGRMLPQLVCRLVLRCS; Pulmonary surfactant-associated protein B; UniProt P07988 253-278, looked up, fragment) [reference compound]	–	40.0	49.3	0.1	45.0	55.5	4.9
B1	–	38.0	45.0	0.0	30.0	49.0	4.2
